One molecule from US20060040277A1 (published 2006) can be followed below.

The test deals with T1, GST-ATIPmouse-short fusion protein (from pGEX-4T1-GST-ATIPmouse-short), on glutathione-agarose beads (mouse, UniProt Q5HZI1 937-1053).
T1 construct: also called GA-GST-ATIPmouse-short; GST-ATIPc; not shown: glutathione S-transferase (GST) encoded by pGEX-4T-1 (Pharmacia)
T1 sequence: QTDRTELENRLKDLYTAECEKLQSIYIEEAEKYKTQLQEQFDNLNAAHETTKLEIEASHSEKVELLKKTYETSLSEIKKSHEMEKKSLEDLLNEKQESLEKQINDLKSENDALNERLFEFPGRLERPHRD
Briefly: GST pull-down, SDS-PAGE and immunoblot with anti-MBP. (A western blot detects proteins with antibodies after separation by electrophoresis.)

B1: MBP-AT1: fusion of Maltose Binding Protein and the C-terminal end of the human AT1 receptor (Leu 297-Glu 359) (receptor, UniProt P30556 297-359, looked up, not shown: large carriers)
chain: LNPLFYGFLGKKFKRYFLQLLKYIPPKAKSHSNLSTKMSTLSYRPSDNVSSSTKKPAPCFEVE
notes: range 297-359
Turning to B1, the binding result was “no binding”.
